Data published in patent US20110117658A1 (published 2011).
Bridges are numbered along the chain shown (N, C = ends). Where no end group is shown, it is not given here. [ ]: non-standard residue; d: D form. Gla = N[C@@H](CC(C(=O)O)C(=O)O)C(=O)O

Tests used:
[1] = biological target: the molecule itself; assay: sedimentation equilibrium, monomer-dimer equilibrium model, in the absence of calcium; extrapolated dimer dissociation constant
Text: (§1) The hydroxyapatite lattice binding mode represented by the best solution presupposes that osteocalcin engages hydroxyapatite with the acidic Ca²⁺-coordinating surface as a monomer. In the crystal structure of porcine osteocalcin, however, the five Ca²⁺ ions are sandwiched between two crystallographically related protein molecules. If overly stable, this dimeric state could present an impediment to hydroxyapatite binding. To investigate whether porcine osteocalcin exists as a monomer or dimer in solution, sedimentation equilibrium analysis in the presence and absence of 10 mM CaCl₂ was carried out. In both cases, the sedimentation equilibrium data were best fitted to a monomer-dimer equilibrium model (FIG. 6). […] Theses Kd values are 2-3 orders of magnitude higher than the concentration of osteocalcin in human serum […],³¹ showing that osteocalcin exists as a monomer in vivo.

[2] = biological target: the molecule itself; assay: sedimentation equilibrium, monomer-dimer equilibrium model, in the presence of 10 mM CaCl2; extrapolated dimer dissociation constant
Text: as §1

B1: porcine osteocalcin (other)
chain: YLDHGLGAPAPYPDPL[Gla]PRR[Gla]VC[Gla]LNPDCDELADHIGFQEAYRRFYGIA
modifications: disulfide 23-29; not fully specified
notes: the entries describe its self-association into a dimer; In the crystal only residues 13-49 are ordered (residues 1 to 12 missing from the model); also called pOC; POC13-49 (part seen in the crystal structure)
Kd [1]: 800 µM
Kd [2]: 200 µM
